The source of these data is the DeepSol protein solubility set.

This series in a line: soluble on expression in E. coli; label from the status in PepcDB or PDB records.
As for “NNESSLIEQAPIPQDGLTVAPHRAQREAVHIEKIMLKGVQRKRADKYWEYTFKVNWSDLSVTTVTKTHQELQEFLLKLPKELSSETFDKTILRALNQGSLKREERRHPDLEPILRQLFSSSSQAFLQSQKVHSFFQSISSDSLHSINNLQSSLKTSKILEHLKEDSSEASSQEEDVLQHAIIHKKHTGKSPIVNNIGTSCSPLDGLTMQYSEQNGIVDWRKQSCTTIQHPEHCVTSADQHSAEKRSLSSINKKKGKPQTEKEKIKKTDNRLNSRINGIRLSTPQHAHGGTVKDVNLDIGSGHDTCGETSSESYSSPSSPRHDGRESFESEEEKDRDTDSNSEDSGNPSTTRFTGYGSVNQTVTVKPPVQIASLGNENGNLLEDPLNSPKYQHISFMPTLHCVMHNGAQKSEVVVPAPKPADGKTIGMLVPSPVAISAIRESANSTPVGILGPTACTGESEKHLELLASPLPIPSTFLPHSSTPALHLTVQRLKLPPPQGSSESCTVNIPQQPPGSLSIASPNTAFIPIHNPGSFPGSPVATTDPITKSASQVVGLNQMVPQIEGNTGTVPQPTNVKVVLPAAGLSAAQPPASYPLPGSPLAAGVLPSQNSSVLSTAATSPQPASAGISQAQATVPPAVPTHTPGPAPSPSPALTHSTAQSDSTSYISAVGNTNANGTVVPPQQMGSGPCGSCGRRCSCGTNGNLQLNSYYYPNPMPGPMYRVPSFFTLPSICNGSYLNQAHQSNGNQLPFFLPQTPYANGLVHDPVMGSQANYGMQQMAGFGRFYPVYPAPNVVANTSGSGPKKNGNVSCYNCGVSGHYAQDCKQSSMEANQQGTYRLRYAPPLPPSNDTLDSAD”, the “soluble on expression in E. coli” value is reported as “soluble”.
Turning to “NNNLTWNIYANMTWNKNKIIKLSTDEPIEYTYQIIEEGRPYRQFYMKEYAGVDRENGKPLWYLNEEGNETTSDYNAAAKRYVGDADPKVLGGFGTNLSWKGFDFNMNFTYRLGGKVFDSGASFTGFGMANRTPLKDVALNSWTEENKDAKYPQYIYGDPNKATQTSSRFLYSSNFLRISNMTLGYTVPVNLTKKIFIQKLRAYISIDNLYTFTSNDFVGYNPETYSNGVIAWQYPATRTFIGGIQLSF”, the “soluble on expression in E. coli” value is on record as “not soluble”.
Take “NPVENYIDEVLNEVLVVPNINSSNPTTSNSAPALDAAETGHTSSVQPEDVIETRYVQTSQTRDEMSLESFLGRSGCIHESKLEVTLANYNKENFTVWAINLQEMAQIRRKFELFTYTRFDSEITLVPCISALSQDIGHITMQYMYVPPGAPVPNSRDDYAWQSGTNASVFWQHGQAYPRFSLPFLSVASAYYMFYDGYDEQDQNYGTANTNNMGSLCSRIVTEKHIHKVHIMTRIYHKAKHVKAWCPRPPRALEYTRAHRTNFKIEDRSIQTAIVTRPIITTAGPSDMY”: the “soluble on expression in E. coli” value is recorded as “soluble”.
With “NSSGVNRVVGNNLDDLALPKLAKDQTNPMTMEELTTRFLRSDSATFDGTVVEVQGFASAAADGTWRLSRYKIYCCAADAMAYTATLETSTSMSSDQWYRVRGVVRVSSAHNPQFPMIEVHNLEAIDTPTEPYL”, the “soluble on expression in E. coli” value is “not soluble”.
As for “NTLGMALYADGGLMASKPYAASGKYIHRMSNFCQSCYYNPNDLLGEKACPFNALYWNFLHQNQEKLKDNPRLRYAYMNWQKMDFDKQKKTIHKAQRILADLDSANL”, the “soluble on expression in E. coli” value is “not soluble”.
Regarding “PAAQSCAARVGAPLVNDTVSISLSDHLTDMPTIESRLHAAAKEGFTITIYNPWSRKRRDNYEKCCEILLEHRDPETPVGVVHAAGREDEQVEIVELGELPELGETDLVDMTTTLLVGNEDTY”, the “soluble on expression in E. coli” value was “not soluble”.
“PATDIMFPHSSMELVEGIYKHNQVADYFNKVLADTLLAYLDERLKHDPEASIRIMEIGAGTGGTSAGIFEKLKPYQKHINEYCYTDLSKAFLLHAEKEYGAENPYLTYQLFDVEKPIDQQEFEAGGYDVVIAANVLHATKNIRQTLRHTKAVMKNNGMLLLNEMAGNSLFPHITFGLLEGWWLYEDPAVRIPGCPGLHPDSWKAALESEGFESVFF”: the “soluble on expression in E. coli” value was “not soluble”.
For “PEREAVALVGTRRASPWALAFARRLARELAEAGLWVVSGLARGIDREAHLGALEAGGRTLGVLGSALDRVYPPENRPLAQRMDLLSEFPFGTGPKPEFFPRRNRLIAGLCRAVVVVEAPLDSGALITARHALELGKEVLAVPGRPTDERSLGANRLIQDGAYPVLSAEDVLSYLGMSARP”, the “soluble on expression in E. coli” value is on record as “not soluble”.
Consider “PFMDQSGGGVTFCGGEPLLHPEFLIDILKRCGQQGIHRAVDTTLLARKETVDEVMRNCELLLIDLKSMDSTVHQTFCDVPNELILKNIRRVAEADFPYYIRIPLIEGVNADEKNIKLSAEFLASLPRHPEIINLLPYHDIGKGKHAKLGSIYNPKGYKMQTPSEEVQQQCIQILTDYGLKATIGG”, for which the “soluble on expression in E. coli” value is “soluble”.
On to “PGATPMSLGLFSPTILLPDSAREWPPERQRLVLLHEMAHLKHRDLLLGLVGQLGRALHWPNPLAWTGWSKLLQAREAACDETVLAAGEDPETYAHQLLAAAR”, for which the “soluble on expression in E. coli” value is recorded as “not soluble”.
The entry for “PKHGKRYRALLEKVDPNKIYTIDEAAHLVKELATAKFDETVEVHAKLGIDPRRSDQNVRGTVSLPHGGRIEFRNDKTGAIHAPVGKASFPPEKLADNIRAFIRALEAHKPEGAKGTFLRSVYVTTTMGPSVRINPHS” is “soluble”; for “PLPIPPPPPDIQPLERYWAAHQQLRETDIPQLSQASRLSTQQVLDWFDSRLPQPAEV” it is “soluble”; for “PLTEAQKNKLRHLSVVTLAAKVKCIPYAVLLEALALRNVRQLEDLVIEAVYADVLRGSLDQRNQRLEVDYSIGRDIQRQDLSAIARTLQEW” it is “not soluble”.
For the sequence “PMSEIVRVHASSGTTGKPTVVGYTRRDIAMWSEVVARALNCAGASREDFIQIAYGYGLFTGGLGLHYGSEKLGATVIPISGGNTQKQVQLMADFKTTVLACTPSYALYLAESLEEAGMTTDDISLRVGIFGAEPWTPGMRKEIEIKLGIKAMDIYGLSEVMGPGVACDCEYQAGLHVN”, the “soluble on expression in E. coli” value is on record as “not soluble”.
For the sequence “PNRRADDNATIRVTNLSEDTRETDLQELFRPFGSISRIYLAKDKTTGQSKGFAFISFHRREDAARAIAGVSGFGYDHLILNVEWAKPSTN”, the “soluble on expression in E. coli” value is listed as “soluble”.
Regarding “PPAVSDIRVTRSSPSSLSLAWAVPRAPSGAVLDYEVKYHEKGAEGPSSVRFLKTSENRAELRGLKRGASYLVQVRARSEAGYGPFGQEHHSQTQLD”, the “soluble on expression in E. coli” value is given as “soluble”.
The entry for “PQRSQRESRHLFIREAKKLCQKEFKRWFILAADVNPLMKYFKDRELPIPTLYLMGDRDYMFIQPVKEMVAAHKLSILREIPNCGHVCNVERPEDFNQHSIEFIKQQSIVA” is “not soluble”; for “PRLLCTATKQKNSGQNLEEDMGQSEQKADPPATEKTLLEEKVKLEEQLKETVEKYKRALADTENLRQRSQKLVEEAKLYGIQAFCKDLLEVADVLEKATQCVPKEEIKDDNPHLKNLYEGLVMTEVQIQKVFTKHGLLKLNPVGAKFDPYEHEALFHTPVEGKEPGTVALVSKVGYKLHGRTLRPALVGVVKEA” it is “not soluble”.
The entry for “PSARDILQQGLDRLGSPEDLASRIDSTLLSPRATEEDVRNLVREASDYGFRCAVLTPVYTVKISGLAEKLGVKLCSVIGFPLGQAPLEVKLVEAQTVLEAGATELDVVPHLSLGPEAVYREVSGIVKLAKSYGAVVKVILEAPLWDDKTLSLLVDSSRRAGADIVKTSTGVYTKGGDPVTVFRLASLAKPLGMGVKASGGIRSGIDAVLAVGAGADIIGTSSAVKVLESFKSLV” is “soluble”; for “PTLLTARLRWTDKVTLLADPPDKAMGQRSGPWMGEAITALLRAAEREVRLITPYFVPGNDGCDLLTELAQRGVRLSIMTNALSVTDMVLVHGAYRHYRLPLLKAGAELYEFGPPPRPCGRRDLLHTKVFLIDGRQAVVGSLNFDLRSAFMNTELGVLFEEPDLFAELEAMFDRQSAPDEAHRLSLEKGRLRWSVTEEGRAALARFEPDSPPALRAVSWVVGHLPIQ” it is “not soluble”; for “PVPPLPEHGGKVRFGLIPEEFFQFLYPKTGVTGPYVLGTGLILYLLSKEIYVITPETFSAISTIGFLVYIVKKYGASVGEFADKLNEQKIAQLEEVKQASIKQIQDAIDMEKSQQALVQKRHYLFDVQRNNIAMALEVTYRERLHRVYREVKNRLDYHISVQNMMRQKEQEHMINWVEKRVVQSISAQQEKETIAKCIADLKLLSKKAQAQPVM” it is “soluble”.
On to “PWDSENTIYDKVDQTKRFIEDVVKSFKQNNAILGWILTNEISLVRIPQNDNIFLRWLRELYNYIKRIDDQHLISVGDNVSPFSHNFLRPENVKGIVDYASPHIYQYDQDPIRHSIRYFMILEYDRSAGLPVILEEFG”, for which the “soluble on expression in E. coli” value is given as “not soluble”.
Take “PYIEIFEQPRQRGMRFRYKCEGRSAGSIPGEHSTDNNKTFPSIQILNYFGKVKIRTTLVTKNEPYKPHPHDLVGKDCRDGYYEAEFGPERRVLSFQNLGIQCVKKKDLKESISLRISKKINPFNVPEEQLHNIDEYDLNVVRLCFQAFLPDEHGNYTLALPPLISNPIYDNRAPNTAELRICRVNKNCGSVKGGDEIFILCDKVQKDDIEVRFVLDNWEAKGSFSQADVHRQVAIVFRTPPFLRDITEPITVKMQLRRPSDQEVSEPMDFRYLPD”: the “soluble on expression in E. coli” value was “soluble”.
Regarding “QDSTSDLIPAPPLSKVPLQQNFQDNQFHGKWYVVGLAGNRILRDDQHPMNMYATIYELKEDKSYNVTSVISSHKKCEYTIATFVPGSQPGEFTLGNIKSYGDKTSYLVRVVSTDYNQYAVVFFKLAEDNAEFFAITIYGRTKELASELKENFIRFSKSLGLPENHIVFPVPIDQCIDG”, the “soluble on expression in E. coli” value is listed as “soluble”.
On to “QLERGQEKQALEQAILARTDAPYQSLASVLDNNDWREESVIGVKVQAEAKPEPLPVVLLDNQTFQGKVGYLAYQVVSVGQDPITLALLELGFVEGLRTRDSLPTVTTLTSPTNVTGRLYRKSMNPLSSELMPEMGEGIRVQNLNISELNELLNVELMPAVLQPDNLENWAYPFPWNPLPLTSAKHFGYAVQ”, for which the “soluble on expression in E. coli” value was “not soluble”.
With “QLPCNLSPLNWVGMQHIDLPTVIDTANQTVNTKVDVYVNLPKSSVKGIHMSRLYHLINHLSVLNTMSIKSVLKQMIDSHQDCGTTAAKIVFKFDLLLKRDAIVSTALSGWKSYPVIIEASIINELFNIEYKLDISYSSTCPCSAALSRQIIKNGFKADFSSQNLIPSADIEAWLEQYATLATPHSQRSIATVVVQPFDYAHDINFVDLIDSIENTLKTPTQTAVKRADEQAFAKLNGENLMFVEDAARRLKMLLDQKYKFWSAQVVHQESLHPHDAIAVAISS”, the “soluble on expression in E. coli” value is “not soluble”.
As to “QLVWGPDLSEKASAQRTRVFVDAARRGEIYDNTGQLLAYTMQARSLTASPKQLRKEIEYTAKIELQDEKEYSSWDENQRKKKIEDKVDSYLEEYSNEIPKIIKDSEASANDIKSKDILKKLKADTSYEVLVRNVDPDVAENIAQKFHGIAADLQQIRQYPNGAVAENVIGKISQDGQGQFGFESSNNSVLSGIDGRKTLDVAASGEVIPGSLRDEVPATNGANVTLTLDLDMQTYVQQQLEQAVSNSGAQSASAVVLDVKTGKVLTMANSGTINPNGDIEKQLKDNKSFENTTISSPFEPGSVAKIITAAGVIEDGKSTPDEVLQVPGSIEMSGVNVRDAWEHGTVGYTTTGIFGKSSNVGTLMLAQRLGEQRFNDLLHRFGIGQNTGIELPVESQGLLPDISQ”, the “soluble on expression in E. coli” value is “not soluble”.
For the sequence “QMNTVFIKNEGVTEGEIATIGEHTAEISGVSTGTDWTRDYSQSGALRSLLGTVSTEKQGLPAEEVDEYLKKGYARNDRVGTSYLEKQYEDVLQGKKAKSEVVLDNNGKIVSQTPISKGEKGSNLKLTID”, the “soluble on expression in E. coli” value is listed as “not soluble”.
Take “QPKPEEKLTNNIILKKLQIALNLKADEVLDLLKLVNFRLSKHELSAFFRKPDHKHYRVCKDQVLRNFLQAVQQNLRG”: the “soluble on expression in E. coli” value is given as “not soluble”.
